{"source": "patent US20220002423A1", "about": "(GENERAL HOSPITAL, published 2022)", "binders": {"B1": {"name": "agonistic TNFR2 antibody TNFRAG1 (antibody, V domains shown)", "VH": "EVQLQQFGAELVKPGASVKISCKASGYTFTDYNIDWVKQSHGKSLEWIGDINPNYDSTSYSQKFRGKATLTVDKSSSTAYMELRSLTSEDTAVYYCARGNSWYFDVWGAGTTVTVSS", "VL": "QIVLTQSPALMSASPGEKVTMTCSASSSVRYMYWYQQKPRSSPKPWIYLTSNLASGVPARFSGSGSGTSYSLTISSMEAEDAATYYCQQWSSNPLTFGAGTKLELK", "notes": "the primary antibodies were detected with secondary antibodies against rodent IgG; also called monoclonal TNFR2 antibody TNFRAG1; TNFR2 agonist antibody"}}, "key": {"[1]": {"biological_target": "Full-length human TNFR2 (human) (UniProt P20333)", "assay": "ELISA; categorical score, 0 lowest to 4 highest affinity"}, "[2]": {"biological_target": "T1, Amino acid residues 66-85 of human TNFR2 (human)", "T1 peptide": "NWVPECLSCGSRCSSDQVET", "assay": "ELISA, antibody with TNFα added"}, "[3]": {"biological_target": "T2, Amino acid residues 74-93 of human TNFR2 (human)", "T2 peptide": "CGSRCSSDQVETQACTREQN", "assay": "ELISA, antibody with TNFα added"}, "[4]": {"biological_target": "T3, Amino acid residues 82-101 of human TNFR2 (human)", "T3 peptide": "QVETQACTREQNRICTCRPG", "assay": "ELISA, coated linear peptides 1 µg/well", "method": "(§1) ELISA was also used to determine linear epitopes present on the extracellular surface of TNFR2. Linear peptides corresponding to various regions within the TNFR2 primary sequence were purchased from GenScript (Piscataway, N.J.), diluted in coating buffer and placed on Immulon 4HBX Flat Bottom Microtiter Plates (Thermo Scientific) at a concentration of 1 μg/well. Primary TNFR2 agonistic antibodies (0.1 μg/well) were incubated with substrates. Secondary antibodies against rodent IgG were used to detect the primary antibodies. Absorbance was measured using the SPECTRAMAX® 190 Absorbance Plate Reader and analyzed with SoftMax Pro 6.3 (Molecular Devices)."}, "[5]": {"biological_target": "T4, Amino acid residues 114-133 of human TNFR2 (human)", "T4 peptide": "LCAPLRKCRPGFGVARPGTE", "assay": "ELISA, coated linear peptides 1 µg/well", "method": "as §1"}, "[6]": {"biological_target": "T5, Amino acid residues 122-141 of human TNFR2 (human)", "T5 peptide": "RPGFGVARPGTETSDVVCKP", "assay": "ELISA, coated linear peptides 1 µg/well", "method": "as §1"}, "[7]": {"biological_target": "T6, Amino acid residues 130-149 of human TNFR2 (human)", "T6 peptide": "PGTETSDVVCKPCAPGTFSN", "assay": "ELISA, coated linear peptides 1 µg/well", "method": "as §1"}, "[8]": {"biological_target": "T7, Amino acid residues 138-157 of human TNFR2 (human)", "T7 peptide": "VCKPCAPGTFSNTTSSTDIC", "assay": "ELISA, coated linear peptides 1 µg/well", "method": "as §1"}, "[9]": {"biological_target": "T8, Amino acid residues 146-165 of human TNFR2 (human)", "T8 peptide": "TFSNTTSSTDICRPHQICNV", "assay": "ELISA, coated linear peptides 1 µg/well", "method": "as §1"}, "[10]": {"biological_target": "T9, Amino acid residues 154-174 of human TNFR2 (human)", "T9 peptide": "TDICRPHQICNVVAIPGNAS", "assay": "ELISA, coated linear peptides 1 µg/well", "method": "as §1"}, "[11]": {"biological_target": "T10, Amino acid residues 162-181 of human TNFR2 (human)", "T10 peptide": "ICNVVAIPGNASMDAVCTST", "assay": "ELISA, coated linear peptides 1 µg/well", "method": "as §1"}, "[12]": {"biological_target": "T11, Amino acid residues 1-20 of human TNFR2 (human)", "T11 construct": "20-mer fragment", "T11 peptide": "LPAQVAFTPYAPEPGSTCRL", "assay": "ELISA, coated linear peptides 1 µg/well", "method": "as §1"}, "[13]": {"biological_target": "T12, Amino acid residues 106-125 of human TNFR2 (human)", "T12 sequence (peptide)": "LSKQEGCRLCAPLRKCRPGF", "assay": "ELISA on TNFR2 peptide fragment; categorical score, 0 lowest to 4 highest affinity"}, "[14]": {"biological_target": "T13, Amino acid residues 108-127 of human TNFR2 (human)", "T13 sequence (peptide)": "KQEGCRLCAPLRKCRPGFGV", "assay": "ELISA on TNFR2 peptide fragment; categorical score, 0 lowest to 4 highest affinity"}, "[15]": {"biological_target": "T14, Amino acid residues 26-45 of human TNFR2 (human)", "T14 sequence (peptide)": "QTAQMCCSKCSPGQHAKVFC", "assay": "ELISA on TNFR2 peptide fragment; categorical score, 0 lowest to 4 highest affinity"}, "[16]": {"biological_target": "T15, Amino acid residues 34-53 of human TNFR2 (human)", "T15 sequence (peptide)": "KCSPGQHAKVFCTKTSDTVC", "assay": "ELISA on TNFR2 peptide fragment; categorical score, 0 lowest to 4 highest affinity"}, "[17]": {"biological_target": "T16, Amino acid residues 98-117 of human TNFR2 (human)", "T16 sequence (peptide)": "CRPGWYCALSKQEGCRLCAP", "assay": "ELISA on TNFR2 peptide fragment; categorical score, 0 lowest to 4 highest affinity"}, "[18]": {"biological_target": "T12, Amino acid residues 106-125 of human TNFR2 (human)", "assay": "ELISA, coated linear peptides 1 µg/well, antibody 0.1 µg/well"}, "[19]": {"biological_target": "T13, Amino acid residues 108-127 of human TNFR2 (human)", "assay": "ELISA, coated linear peptides 1 µg/well, antibody 0.1 µg/well"}, "[20]": {"biological_target": "T14, Amino acid residues 26-45 of human TNFR2 (human)", "assay": "ELISA, coated linear peptides 1 µg/well, antibody 0.1 µg/well"}, "[21]": {"biological_target": "T16, Amino acid residues 98-117 of human TNFR2 (human)", "assay": "ELISA, coated linear peptides 1 µg/well, antibody 0.1 µg/well"}, "[22]": {"biological_target": "T17, Amino acid residues 58-77 of human TNFR2 (human)", "T17 peptide": "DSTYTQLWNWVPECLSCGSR", "assay": "ELISA on TNFR2 peptide fragment; categorical score, 0 lowest to 4 highest affinity"}, "[23]": {"biological_target": "T1, Amino acid residues 66-85 of human TNFR2", "assay": "ELISA on TNFR2 peptide fragment; categorical score, 0 lowest to 4 highest affinity"}, "[24]": {"biological_target": "T5, Amino acid residues 122-141 of human …", "assay": "ELISA on TNFR2 peptide fragment; categorical score, 0 lowest to 4 highest affinity"}, "[25]": {"biological_target": "T8, Amino acid residues 146-165 of human …", "assay": "ELISA on TNFR2 peptide fragment; categorical score, 0 lowest to 4 highest affinity"}, "[26]": {"biological_target": "T18, Amino acid residues 42-61 of human TNFR2 (human)", "T18 peptide": "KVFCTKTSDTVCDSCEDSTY", "assay": "ELISA on TNFR2 peptide fragment; categorical score, 0 lowest to 4 highest affinity"}}}
{"binder": "B1", "values": [{"measurement": "Affinity Score", "setting": "[1]", "result": 4}, {"measurement": "binding result", "setting": "[2]", "result": "no binding"}, {"measurement": "binding result", "setting": "[3]", "result": "no binding"}, {"measurement": "binding result", "setting": "[4]", "result": "no binding (tested: 0.1 µg/well)"}, {"measurement": "binding result", "setting": "[5]", "result": "no binding (tested: 0.1 µg/well)"}, {"measurement": "binding result", "setting": "[6]", "result": "no binding (tested: 0.1 µg/well)"}, {"measurement": "binding result", "setting": "[7]", "result": "no binding (tested: 0.1 µg/well)"}, {"measurement": "binding result", "setting": "[8]", "result": "no binding (tested: 0.1 µg/well)"}, {"measurement": "binding result", "setting": "[9]", "result": "no binding (tested: 0.1 µg/well)"}, {"measurement": "binding result", "setting": "[10]", "result": "no binding (tested: 0.1 µg/well)"}, {"measurement": "binding result", "setting": "[11]", "result": "no binding (tested: 0.1 µg/well)"}, {"measurement": "binding result", "setting": "[12]", "result": "no binding (tested: 0.1 µg/well)"}, {"measurement": "Affinity Score", "setting": "[13]", "result": 2}, {"measurement": "Affinity Score", "setting": "[14]", "result": 2}, {"measurement": "Affinity Score", "setting": "[15]", "result": 1}, {"measurement": "Affinity Score", "setting": "[16]", "result": 0}, {"measurement": "Affinity Score", "setting": "[17]", "result": 1}, {"measurement": "Affinity", "setting": "[18]", "result": 2}, {"measurement": "Reading", "setting": "[18]", "result": 0}, {"measurement": "Affinity", "setting": "[19]", "result": 2}, {"measurement": "Reading", "setting": "[19]", "result": 0}, {"measurement": "Affinity", "setting": "[20]", "result": 1}, {"measurement": "Reading", "setting": "[20]", "result": 0}, {"measurement": "Affinity", "setting": "[21]", "result": 1}, {"measurement": "Reading", "setting": "[21]", "result": 0}, {"measurement": "Affinity Score", "setting": "[22]", "result": 0}, {"measurement": "Affinity Score", "setting": "[23]", "result": 0}, {"measurement": "Affinity Score", "setting": "[24]", "result": 0}, {"measurement": "Affinity Score", "setting": "[25]", "result": 0}, {"measurement": "Affinity Score", "setting": "[26]", "result": 0}]}
